Data from patent publication US20230189818A1, “RNA-BASED CONTROL OF BOTRYTIS” (priority 2021, published 2023).

Assays:
Botrytis cinerea conidia = test: In vitro liquid-based assay (fungal biomass, 96-well plates, Cytation 5); assay type: cell-based; details: co-incubated with conidia for three days, vs untreated control
Outline: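 Conidia (5000/mL stock) were co-incubated with dsRNA or control treatments in pH 6.0 minimal medium. Incubation ran 72 h at 23 °C, shaking at 120 rpm under continuous light. Fungal biomass was measured by brightfield imaging (8 slices per well, 2.5× lens) and expressed as average reduction versus control.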

B. cinerea = test: Open-air field trial on snap bean (Example 4.3, AUDPC of % disease severity); assay type: in vivo, Botrytis cinerea; details: Switch 525 g ai/ha, GS349 20 and 40, GS2280 10 and 40, GS2303 10, 20 and 40, GS2297 20 g ai/ha, FIG. 9
Protocol: RNAi compositions, each containing a dsRNA comprising a trigger sequence (GS349, GS2280, GS2303, or GS2297) described herein were evaluated for ability to control botrytis on snap bean in open-air filed trials. All test samples were formulated with RO water, propylene glycol, a linear alcohol ethoxylate, a lignosulfanate, sodium citrate dihydate, a polyacrylic acid polymer, two biocide compositions, anhydrous citric acid, and an antifoam, all of which are readily commercially available. Formulation samples were tank mixed with a standard adjuvant, the non-ionic surfactant, Activator 90 0.125%v/v. Compositions were tested at concentrations of 10, g ai/ha, 20 g ai/ha, and 40 g ai/ha. Positive controls were a chemical standard, Switch 525 g ai/ha and a biological standard, Double Nickel LC 9.4 I/ha, both of which were also tank mixed with Activator 90 0.125% v/v. As above, an untreated check was used as a negative control.
Compositions were applied to snap bean plants using a small plot sprayer delivering 50 gallons of water per acre. A total of three applications were used for each sample and positive control. Disease state was evaluated beginning 8 days after the first application and ending 37 days after the third and final application. Percent Disease Severity was assessed and AUDPC was calculated in the same manner as noted in Example 4.1.

Botrytis = test: Open-air field trial on strawberry (Example 4.1, AUDPC of % disease severity); assay type: in vivo, Botrytis cinerea; details: GS730 100 g ai/ha, FIG. 6
Protocol: RNAi compositions, each containing a dsRNA comprising a trigger sequence (GS349 or GS730) described herein were evaluated for ability to control botrytis on strawberry in open-air field trials. Non-formulated (dissolved in water) GS349 and GS730 were each tank mixed with water and the standard adjuvant Silwet L-77 0.1% v/v. GS349 was tested at concentrations of 25 grams of active ingredient per hectare (g ai/ha) and 50 g ai/ha and GS730 was tested at a concentration of 100 g ai/ha. Serenade ASO 85 g ai/ha, a standard biological fungicide, was used as a positive control. A second positive control group was treated with alternating applications of the chemical standards Teldor Plus 750 g ai/ha, Signum 600 g ai/ha, and Switch 500 g ai/ha. The trial also included an untreated group as a negative control.
Test compositions and positive controls were sprayed onto strawberry plants in 12 applications. Plants were observed beginning 14 days after the first application and disease progress was assessed by determining the percentage of surface area of fruit that was affected by the disease (% Disease Severity). Disease severity was plotted over the length of the trial observations and area under disease progress curve (AUDPC) was calculated in order to measure the cumulative effect of the various treatments across multiple assessments. Means were separated according to Fisher's LSD, alpha (p)≤0.05.

B1: GS2303: dsRNA trigger targeting B. cinerea Bcded1 (XM_001550339.2); trigger SEQ ID NO 24, RNA 36, reverse complement 48 (nucleic acid, listed as Botrytis cinerea)
sense: GGGCUAUAUAAGCUUUCAUCUAGGUUUUCCAAGAAACGCAUUACGAUAGACAUGUUCUCCAAAAAUCUUACUGGUCCUGCUUUCAGCAUUUCCAUGGAUCAUGAAGUCCUCCACUAUGGAAGAUUUGCAAAAUAUUUUCGACAUUGCAUUUUGCUGCAUUUCGCAUUUCUAGAUAGAAAAAAAGUGGGAUUCAUAUUCUCGAUAUUUUCUUCGUUGUCUUUUAUUCACAAGACACAUGGCAAGGGAGGAUACCAUUUGAGAGCUUGAAUUGAAGGCUUUCCUCUUACUUUUUUUAUUUUUCACAUCAUCUACGAGUGGGCGUCUUUUACGAUCAAAUCGAUAUACGACAGUGGCACAAAAUAGAAUAGGCAUUUCUCUUCUUAAAAAAGAUUUAAGGGAAGAGUUGGUGCUUGUUCUCUAUAACGCUGAUGGCAUUCGGAAGUGCUCCUGUCCAUUCAGGCUGAGACUGAGACCCAAAAUGUUGGCAGGUACGGCAGAAAGAAGUCUGCUUCAUAUGAUUGAUGGAGGAAGAAAGAAAUAUGGAAUGCGAUGGAUGAGUAAUUACUUUAAAUGAAUAUGAAAA
antisense: UUUUCAUAUUCAUUUAAAGUAAUUACUCAUCCAUCGCAUUCCAUAUUUCUUUCUUCCUCCAUCAAUCAUAUGAAGCAGACUUCUUUCUGCCGUACCUGCCAACAUUUUGGGUCUCAGUCUCAGCCUGAAUGGACAGGAGCACUUCCGAAUGCCAUCAGCGUUAUAGAGAACAAGCACCAACUCUUCCCUUAAAUCUUUUUUAAGAAGAGAAAUGCCUAUUCUAUUUUGUGCCACUGUCGUAUAUCGAUUUGAUCGUAAAAGACGCCCACUCGUAGAUGAUGUGAAAAAUAAAAAAAGUAAGAGGAAAGCCUUCAAUUCAAGCUCUCAAAUGGUAUCCUCCCUUGCCAUGUGUCUUGUGAAUAAAAGACAACGAAGAAAAUAUCGAGAAUAUGAAUCCCACUUUUUUUCUAUCUAGAAAUGCGAAAUGCAGCAAAAUGCAAUGUCGAAAAUAUUUUGCAAAUCUUCCAUAGUGGAGGACUUCAUGAUCCAUGGAAAUGCUGAAAGCAGGACCAGUAAGAUUUUUGGAGAACAUGUCUAUCGUAAUGCGUUUCUUGGAAAACCUAGAUGAAAGCUUAUAUAGCCC
- Average % Reduction in Biomass (Botrytis cinerea conidia; 25 ppm dsRNA): 13%
- Average % Reduction in Biomass (Botrytis cinerea conidia; 150 ppm dsRNA): 26%
- Disease state compared to treatment with the chemical standard (AUDPC) (B. cinerea): no significant difference

B2: GS2280: dsRNA trigger targeting B. cinerea Bcmcm4 (XM_024696090.1); trigger SEQ ID NO 21, RNA 33, reverse complement 45 (nucleic acid, listed as Botrytis cinerea)
sense: AAUGUCCUCGUCCGGUUUGUAAAUCUCCAAACUCCAUGCAGAUUGUACACAACAGGUCUGGAUUCAUGGAUAAGCAAGUUAUCAAGCUUCAAGAAACUCCAGAUUCCGUUCCUGCUGGUCAAACACCACAUUCCGUCUCGAUGUGUGCAUAUGAUGAGUUGGUGGAUCUGUGCAAAGCUGGUGACAGAGUUGAGAUUACUGGUAUCUUCAAAGCUAGUCCAGUUCGUGUCAAUCCUCGCCAAAGAACUCUCAAAAGCAUUUAUAAAACGUACAUCGACGUUUUACACAUUCAAAAGGUUGACAAGAAAAGAAUGGGAAUUGAUGCUUCGACCGUUGAGCAAGAAAUAUCCGAUCAGUUGACAGGCAACAUUGAAGAAACUAGAAAGGUUUCUGAAGAGGAGGAAGAAAAAAUCAGAGAAACCGCUGCAAGACCCGAUAUCUACGAACUUCUAUCUCGAUCCCUCGCACCUAGUAUUUUUGAGAUGGACGAUGUUAAGAAGGGUAUCUUGCUUCAAUUAUUUGGUGGAACUAACAAGUCUUUCGAAAAAGGAGGAAGUCCAAAAUACAGAGGAGAUAUCAAUAUUCUAUUGU
antisense: ACAAUAGAAUAUUGAUAUCUCCUCUGUAUUUUGGACUUCCUCCUUUUUCGAAAGACUUGUUAGUUCCACCAAAUAAUUGAAGCAAGAUACCCUUCUUAACAUCGUCCAUCUCAAAAAUACUAGGUGCGAGGGAUCGAGAUAGAAGUUCGUAGAUAUCGGGUCUUGCAGCGGUUUCUCUGAUUUUUUCUUCCUCCUCUUCAGAAACCUUUCUAGUUUCUUCAAUGUUGCCUGUCAACUGAUCGGAUAUUUCUUGCUCAACGGUCGAAGCAUCAAUUCCCAUUCUUUUCUUGUCAACCUUUUGAAUGUGUAAAACGUCGAUGUACGUUUUAUAAAUGCUUUUGAGAGUUCUUUGGCGAGGAUUGACACGAACUGGACUAGCUUUGAAGAUACCAGUAAUCUCAACUCUGUCACCAGCUUUGCACAGAUCCACCAACUCAUCAUAUGCACACAUCGAGACGGAAUGUGGUGUUUGACCAGCAGGAACGGAAUCUGGAGUUUCUUGAAGCUUGAUAACUUGCUUAUCCAUGAAUCCAGACCUGUUGUGUACAAUCUGCAUGGAGUUUGGAGAUUUACAAACCGGACGAGGACAUU
- Average % Reduction in Biomass (Botrytis cinerea conidia; 25 ppm dsRNA): 16%
- Average % Reduction in Biomass (Botrytis cinerea conidia; 150 ppm dsRNA): 33%
- Disease state compared to treatment with the chemical standard (AUDPC) (B. cinerea): no significant difference

B3: GS730: dsRNA trigger targeting B. cinerea Bcsec15 (XM_024692064.1); trigger SEQ ID NO 19, RNA 31, reverse complement 43 (nucleic acid, listed as Botrytis cinerea)
sense: UCAACGCAGUCUCCAAAGCUUUGGAUGAAUUCGAUAACCCGGAUGUUAUUCUGCAAACCAAGAAUGUGAUAGCAUUGUUCAUCCAAACAAUGGAGGGUUGGGGAUAUUCAGUUGCCAUAUUAGAUGCUUAUGUGCUUAAGCUUUUCUAUAGAUAUGCUGAUUUGUUAAAACGGAAAUUCAGCACAGAUUUUCAACAGAUUGUGUCUACCGAUGAAUACAUGCCUAUGCCUGUCAAUAGCGAAGAAGACUUUGAUAAAAUCAUUCAAGUCAGUUGGUAUGUUCCGGACAGACCGAAAGAAGAAUACACAUUCCCCGGUGUAUUACCAUUCUCCCAGAUGUACCCAAUGUGCUGUAUAGAUAUCAGAAAUUUCCUGAAUCGAUUCUACUUCAUAAUGGAUGAUCAUUUUCAACAGCCAAACAUUAUUGAUGAGACACUUAAGAAGUCGAUAGAUGAGCUUCUGUCUGAGGAUAUUUGUGA
antisense: UCACAAAUAUCCUCAGACAGAAGCUCAUCUAUCGACUUCUUAAGUGUCUCAUCAAUAAUGUUUGGCUGUUGAAAAUGAUCAUCCAUUAUGAAGUAGAAUCGAUUCAGGAAAUUUCUGAUAUCUAUACAGCACAUUGGGUACAUCUGGGAGAAUGGUAAUACACCGGGGAAUGUGUAUUCUUCUUUCGGUCUGUCCGGAACAUACCAACUGACUUGAAUGAUUUUAUCAAAGUCUUCUUCGCUAUUGACAGGCAUAGGCAUGUAUUCAUCGGUAGACACAAUCUGUUGAAAAUCUGUGCUGAAUUUCCGUUUUAACAAAUCAGCAUAUCUAUAGAAAAGCUUAAGCACAUAAGCAUCUAAUAUGGCAACUGAAUAUCCCCAACCCUCCAUUGUUUGGAUGAACAAUGCUAUCACAUUCUUGGUUUGCAGAAUAACAUCCGGGUUAUCGAAUUCAUCCAAAGCUUUGGAGACUGCGUUGA
- Disease control compared with the biological standard, Serenade (AUDPC) (Botrytis; GS349 25 g ai/ha, Serenade ASO 85 g ai/ha): not significantly different
- Control of Botrytis vs. the untreated control (AUDPC) (Botrytis; non-formulated, Silwet L-77 0.1% v/v, 12 applications, GS349 25 and 50 g ai/ha): significant control
- Average % Reduction in Biomass (Botrytis cinerea conidia; 25 ppm dsRNA): 21%
- Average % Reduction in Biomass (Botrytis cinerea conidia; 150 ppm dsRNA): 45%
